Source: paper PMC5524822

Target: HIV-1 Env of virus AT1 with the I371V mutation (HIV-1)

VRC01 (antibody)
IC50 of neutralisation of the virus in TZM-bl cells (luciferase reporter): 0.0724 µg/mL
